“And” between values parts separate entries of the source, which are not always exact repeats. Identical values can stand only once. Like-named read-outs stand apart in the source and are kept apart here.
B1: 65D3 mutant IgG variant 1 (S55W&G64K-VH + S57T-VL) (antibody)
heavy: QSLEESGGRLVTPGGSLTLTCTVSGFSLSTHDISWVRQAPGKGLEWIGVIARRGWTYYASWAKKRFTISKTSTTVDLKITSPTIEDTATYFCAREEFDFWGQGTLVTVSSGQPKAPSVFPLAPCCGDTPSSTVTLGCLVKGYLPEPVTVTWNSGTLTNGVRTFPSVRQSSGLYSLSSVVSVTSSSQPVTCNVAHPATNTKVDKTVAPSTCSKPTCPPPELLGGPSVFIFPPKPKDTLMISRTPEVTCVVVDVSQDDPEVQFTWYINNEQVRTARPPLREQQFNSTIRVVSTLPIAHQDWLRGKEFKCKVHNKALPAPIEKTISKARGQPLEPKVYTMGPPREELSSRSVSLTCMINGFYPSDISVEWEKNGKAEDNYKTTPAVLDSDGSYFLYSKLSVPTSEWQRGDVFTCSVMHEALHNHYTQKSISRSPGK
light: AVLTQTASPVSAAVGGTVTISCQSSQSVYNNKELSWFQQKPGQPPKLLISYASTLATGVPSRFKGSGSGTQFTLTISDLECDDAATYYCLGGYASTIDMWAFGGGTEVVVKGDPVAPTVLIFPPAADQVATGTVTIVCVANKYFPDVTVTWEVDGTTQTTGIENSKTPQNSADCTYNLSSTLTLTSTQYNSHKEYTCKVTQGTTSVVQSFNRGDC
B2: chimeric Fab antibody of 65D3 (wild type) (Fab, V domains shown)
VH: QSLEESGGRLVTPGGSLTLTCTVSGFSLSTHDISWVRQAPGKGLEWIGVIARRGSTYYASWAKGRFTISKTSTTVDLKITSPTIEDTATYFCAREEFDFWGQGTLVTVSS
VL: AVLTQTASPVSAAVGGTVTISCQSSQSVYNNKELSWFQQKPGQPPKLLISYASTLASGVPSRFKGSGSGTQFTLTISDLECDDAATYYCLGGYASTIDMWAFGGGTEVVVK
B3: 65D3 mutant IgG variant 3 (S55W-VH + VL) (antibody)
heavy: QSLEESGGRLVTPGGSLTLTCTVSGFSLSTHDISWVRQAPGKGLEWIGVIARRGWTYYASWAKGRFTISKTSTTVDLKITSPTIEDTATYFCAREEFDFWGQGTLVTVSSGQPKAPSVFPLAPCCGDTPSSTVTLGCLVKGYLPEPVTVTWNSGTLTNGVRTFPSVRQSSGLYSLSSVVSVTSSSQPVTCNVAHPATNTKVDKTVAPSTCSKPTCPPPELLGGPSVFIFPPKPKDTLMISRTPEVTCVVVDVSQDDPEVQFTWYINNEQVRTARPPLREQQFNSTIRVVSTLPIAHQDWLRGKEFKCKVHNKALPAPIEKTISKARGQPLEPKVYTMGPPREELSSRSVSLTCMINGFYPSDISVEWEKNGKAEDNYKTTPAVLDSDGSYFLYSKLSVPTSEWQRGDVFTCSVMHEALHNHYTQKSISRSPGK
VL: AVLTQTASPVSAAVGGTVTISCQSSQSVYNNKELSWFQQKPGQPPKLLISYASTLASGVPSRFKGSGSGTQFTLTISDLECDDAATYYCLGGYASTIDMWAFGGGTEVVVK

Tests used:
[1] = biological target: Peptide 1593 (…) (Mycobacterium tuberculosis); test: SPR (Biacore), IgG amine-coupled, peptide as analyte
[2] = biological target: Peptide 1593 (…) (Mycobacterium tuberculosis)
[3] = biological target: Peptide 1593 (…) (Mycobacterium tuberculosis); test: ELISA, Fab supernatant on coated peptide
[4] = biological target: Peptide 1593 (…) (Mycobacterium tuberculosis); remark: listed apart in the source

| Binder | Kd [1] | koff [1] | kon [1] | Kd [2] | OD450 at 0.00390625 ug/ml coated antigen [3] | OD450 at 0.0078125 ug/ml coated antigen [3] | OD450 at 0.00953125 ug/ml coated antigen (so in the source) [3] | OD450 at 0.015625 ug/ml coated antigen [3] | OD450 at 0.03125 ug/ml coated antigen [3] | OD450 at 0.0625 ug/ml coated antigen [3] | OD450 at 0.125 ug/ml coated antigen [3] | OD450 at 0.25 ug/ml coated antigen [3] | OD450 at 0.5 ug/ml coated antigen [3] | OD450 at 1 ug/ml coated antigen [3] | OD450 nm (single well) [4] |
| --- | --- | --- | --- | --- | --- | --- | --- | --- | --- | --- | --- | --- | --- | --- | --- |
| B1 | 2.6 nM | 0.00027 s⁻¹ | 104000 M⁻¹ s⁻¹ | 2.7 nM |  |  |  |  |  |  |  |  |  |  |  |
| B2 |  |  |  |  | 0.133 OD450 and 0.147 OD450 | 0.319 OD450 and 0.341 OD450 | 0.084 OD450 | 0.73 OD450 and 0.789 OD450 | 1.21 OD450 and 1.37 OD450 | 1.71 OD450 and 1.8 OD450 | 1.94 OD450 and 2.04 OD450 | 2.18 OD450 and 2.23 OD450 | 2.27 OD450 and 2.25 OD450 | 2.3 OD450 and 2.31 OD450 | 0.879 and 0.794 |
| B3 | 2.03 nM | 0.00026 s⁻¹ | 128000 M⁻¹ s⁻¹ |  |  |  |  |  |  |  |  |  |  |  |  |

From US12649778
